Source: IntAct's records for PubMed 18728196

B1: Anti-sigma factor RshA (Mycobacterium tuberculosis (strain ATCC 25618 / P9WJ69 (parent)
chain: MSENCGPTDAHADHDDSHGGMGCAEVIAEVWTLLDGECTPETRERLRRHLEACPGCLRHYGLEERIKALIGTKCRGDRAPEGLRERLRLEIRRTTIIRGGP

Variants of: B1
Settings: with pstp_myctu pstP

Row | Variant | effect of a mutation on the interaction
1 | MSENCGPTDAHADHDDSHGGMGCAEVIAEVWTLLDGECTPETRERLRRHLEACPGCLRHYGLEERIKALIGTKCRGDRAPEGLRERLRLEIRRATIIRGGP [T94A] | disrupting interaction
